Reference: US20140314744A1 (NEOTOPE BIOSCIENCES, published 2014)

Target: T1, Recombinant human IgG1 Fc (R&D systems) (human, UniProt P01857-1 100-330 = IgG part)
T1 construct: domain: Fc; Negative control surface in the Biacore experiment; also called hIgG1-Fc
Experiment: SPR (Biacore T200)

B1: Recombinant human laminin-α4 (R&D systems) (ligand, UniProt Q16363-2 826-1816, looked up)
chain: QVSMMFDGQSAVEVHSRTSMDDLKAFTSLSLYMKPPVKRPELTETADQFILYLGSKNAKKEYMGLAIKNDNLVYVYNLGTKDVEIPLDSKPVSSWPAYFSIVKIERVGKHGKVFLTVPSLSSTAEEKFIKKGEFSGDDSLLDLDPEDTVFYVGGVPSNFKLPTSLNLPGFVGCLELATLNNDVISLYNFKHIYNMDPSTSVPCARDKLAFTQSRAASYFFDGSGYAVVRDITRRGKFGQVTRFDIEVRTPADNGLILLMVNGSMFFRLEMRNGYLHVFYDFGFSGGPVHLEDTLKKAQINDAKYHEISIIYHNDKKMILVVDRRHVKSMDNEKMKIPFTDIYIGGAPPEILQSRALRAHLPLDINFRGCMKGFQFQKKDFNLLEQTETLGVGYGCPEDSLISRRAYFNGQSFIASIQKISFFDGFEGGFNFRTLQPNGLLFYYASGSDVFSISLDNGTVIMDVKGIKVQSVDKQYNDGLSHFVISSVSPTRYELIVDKSRVGSKNPTKGKIEQTQASEKKFYFGGSPISAQYANFTGCISNAYFTRVDRDVEVEDFQRYTEKVHTSLYECPIESSPLFLLHKKGKNLSKPKASQNKKGGKSKDAPSWDPVALKLPERNTPRNSHCHLSNSPRAIEHAYQYGGTANSRQEFEHLKGDFGAKSQFSIRLRTRSSHGMIFYVSDQEENDFMTLFLAHGRLVYMFNVGHKKLKIRSQEKYNDGLWHDVIFIRERSSGRLVIDGLRVLEESLPPTEATWKIKGPIYLGGVAPGKAVKNVQINSIYSFSGCLSNLQLNGASITSASQTFSVTPCFEGPMETGTYFSTEGGYVVLDESFNIGLKFEIAFEVRPRSSSGTLVHGHSVNGEYLNVHMKNGQVIVKVNNGIRDFSTSVTPKQSLCDGRWHRITVIRDSNVVQLDVDSEVNHVVGPLNPKPIDHREPVFVGGVPESLLTPRLAPSKPFTGCIRHFVIDGHPVSFSKAALVSGAVSINSCPAA
notes: also called laminin 4A chain; laminin A4 (α4) chain
  binding result: no binding (tested: 5-175 nM)
